# Data: patent publication US20220154156A1, “PROTEINS AND METHODS FOR DISRUPTING BACTERIAL COMMUNICATION” (REGENTS OF THE UNIVERSITY OF MINNESOTA, priority 2019, published 2022)
# B1: SsoPox W263I: improved variant of the hyperthermostable lactonase SsoPox from Sulfolobus solfataricus, exhibiting higher catalytic rates (protein, UniProt Q97VT7 1-314, looked up, variant W263I)
# Aryldialkylphosphatase: MRIPLVGKDSIESKDIGFTLIHEHLRVFSEAVRQQWPHLYNEDEEFRNAVNEVKRAMQFGVKTIVDPTVMGLGRDIRFMEKVVKATGINLVAGTGIYIYIDLPFYFLNRSIDEIADLFIHDIKEGIQGTLNKAGFVKIAADEPGITKDVEKVIRAAAIANKETKVPIITHSNAHNNTGLEQQRILTEEGVDPGKILIGHLGDTDNIDYIKKIADKGSFIGLDRYGLDLFLPVDKRNETTLRLIKDGYSDKIMISHDYCCTIDIGTAKPEYKPKLAPRWSITLIFEDTIPFLKRNGVNEEVIATIFKENPKKFFS
# Tested on: bacterial communities at the surface of the steel
# Experiment: 16S rDNA analysis of microbial community on steel coupons
# Conditions: treated coupons
# Protocol: After photo imaging, on each of the coupon surface, all material including biofilm and tubercles were scraped into a sterile 50 ml polypropylene centrifuge tube (Corning, N.Y., USA) using a steel scraper. A 0.5 g subsample of the surface material from each coupon sample was used for DNA extraction using PowerSoil DNA kit (MoBio Laboratories). The extracted DNA was used to sequence the V4 region of 16S rDNA gene and describe changes in the composition of bacterial communities. DNA samples were quantified with a NanoDrop 2000 Spectrophotometer (Thermo Scientific, Waltham, Mass. USA) and then sent overnight to the University of Minnesota Genomics Center for 16S rDNA sequencing. 30 samples were multiplexed into a single run of Illumina MiSeq paired-end 300 cycles, which was expected to generate a total of 15 million sequences of the 254 bp portions of the 16S rDNA V4 region.
# Sequence data were processed and analyzed using the MOTHUR program. To ensure high quality data for analysis, sequence reads containing ambiguous bases, homopolymers >7 bp, more than one mismatch in the primer sequence, or an average per base quality score below 25 were removed. Sequences that only appear once in the total set were assumed to be a result of sequencing error and removed from the analysis. Chimeric sequences were also removed using the UCHIME algorithm within the MOTHUR program. […]
molecule,measurement,value
B1,"abundance of Burkholderiales, Pseudomonadales and Rhodospirillales",significantly reduced
